Values quoted from earlier work, collected in article PMC7312390.

Tests used:
Cys25 = Cys25 (UniProt position 158, GSCGSCWAFSA); details: free cysteine protease (Cys/His ion pair in the apo state)
His57 = His57 (UniProt position 57, VVTAAHCGVTT); details: free (apo) chymotrypsin

papain (Carica papaya (not stated in the article; inferred))
pKa (Cys25): 3.3

chymotrypsin (not stated in the article (PDB 4CHA is bovine, Bos taurus, alpha-chymotrypsin))
pKa (His57): 7.5
